Results taken from patent US20240132589A1 (ONCORESPONSE, published 2024).

What was measured:
Assay in all cases: flow cytometry, transiently transfected HEK293-6E cells
[1] = target: T1, Human LILRB2 on transiently transfected HEK293-6E cells (human, UniProt Q8N423 22-597)
T1 construct: whole, on cells; also called hLILRB2
Experimental: (§1) To determine that the anti-LILRB2 antibodies specifically bind to LILRB2 and not other LILRB and LILRA family members, a cross-reactivity assay was performed. Cross-reactivity of the LILRB2 antibodies to other LILRB proteins was assessed by antibody binding to transiently transfected HEK293-6E cells, measured by flow cytometry. Binding was evaluated to HEK293-6E cells transiently transfected with human LILRB-1, -2, -3, -4, and 5 plasmids (Origene, Nos. RC219949, RC217935, RC211228, RC220932, RC206516) or to cells transiently transfected with human LILRA-1, -2, -4, -5, and -6 plasmids (Origene, Nos. RC210808, RC205626, RC220452, RC212310 RC212965). […] Murine primary antibodies to LILRA and LILRB targets and corresponding isotype controls were used to confirm specific binding of all targets tested (R&D Systems) while an AF647 F(ab′)₂ fragment goat anti-mouse antibody (Jackson ImmunoResearch, No. 115-606-062) was used for the detection of bound positive control antibodies. No binding of B2A-IgG4 or B2A-IgG1 to LILRB-1, -3, -4, or -5 was observed, and no binding of either antibody to LILRA-1, -2, -4, -5, or -6 was observed, confirming specificity of these antibodies.

[2] = target: T2, Human LILRB1 on transiently transfected HEK293-6E cells (human, UniProt Q8NHL6 24-650)
T2 construct: whole, on cells; also called hLILRB1

[3] = target: T3, Human LILRB5 on transiently transfected HEK293-6E cells (human, UniProt O75023 24-590)
T3 construct: whole, on cells; also called hLILRB5

[4] = target: T4, Human LILRB4 on transiently transfected HEK293-6E cells (human, UniProt Q8NHJ6 22-448)
T4 construct: whole, on cells; also called hLILRB4

[5] = target: T5, Human LILRA5 on transiently transfected HEK293-6E cells (human, UniProt A6NI73 42-299)
T5 construct: whole, on cells; also called hLILRA5

[6] = target: T6, Human LILRA4 on transiently transfected HEK293-6E cells (human, UniProt P59901 24-499)
T6 construct: whole, on cells; also called hLILRA4

[7] = target: T7, Human LILRA2 on transiently transfected HEK293-6E cells (human, UniProt Q8N149 24-483)
T7 construct: whole, on cells; also called hLILRA2

[8] = target: T8, Human LILRA6 on transiently transfected HEK293-6E cells (human, UniProt Q6PI73 24-481)
T8 construct: whole, on cells; also called hLILRA6

[9] = target: T9, Human LILRB3 on transiently transfected HEK293-6E cells (human, UniProt O75022 24-631)
T9 construct: whole, on cells; also called hLILRB3

[10] = target: T10, Human LILRA1 on transiently transfected HEK293-6E cells (human, UniProt O75019 17-489)
T10 construct: whole, on cells; also called hLILRA1

[11] = target: T2, Human LILRB1 on transiently transfected …; remark: listed apart in the source
Experimental: as §1
(§2) Select humanized variant antibodies were tested for their ability to bind other LILRB or LILRA family members, using the method and commercially available positive control antibodies of Example 5.

[12] = target: T3, Human LILRB5 on transiently transfected …; remark: listed apart in the source
Experimental: as §1, §2

[13] = target: T1, Human LILRB2 on transiently transfected …; remark: listed apart in the source
Experimental: as §1, §2

[14] = target: T4, Human LILRB4 on transiently transfected …; remark: listed apart in the source
Experimental: as §1, §2

[15] = target: T5, Human LILRA5 on transiently transfected …; remark: listed apart in the source
Experimental: as §1, §2

[16] = target: T6, Human LILRA4 on transiently transfected …; remark: listed apart in the source
Experimental: as §1, §2

[17] = target: T7, Human LILRA2 on transiently transfected …; remark: listed apart in the source
Experimental: as §1, §2

[18] = target: T8, Human LILRA6 on transiently transfected …; remark: listed apart in the source
Experimental: as §1, §2

[19] = target: T9, Human LILRB3 on transiently transfected …; remark: listed apart in the source
Experimental: as §1, §2

[20] = target: T10, Human LILRA1 on transiently transfected …; remark: listed apart in the source
Experimental: as §1, §2

T2 sequence (Q8NHL6 24-650): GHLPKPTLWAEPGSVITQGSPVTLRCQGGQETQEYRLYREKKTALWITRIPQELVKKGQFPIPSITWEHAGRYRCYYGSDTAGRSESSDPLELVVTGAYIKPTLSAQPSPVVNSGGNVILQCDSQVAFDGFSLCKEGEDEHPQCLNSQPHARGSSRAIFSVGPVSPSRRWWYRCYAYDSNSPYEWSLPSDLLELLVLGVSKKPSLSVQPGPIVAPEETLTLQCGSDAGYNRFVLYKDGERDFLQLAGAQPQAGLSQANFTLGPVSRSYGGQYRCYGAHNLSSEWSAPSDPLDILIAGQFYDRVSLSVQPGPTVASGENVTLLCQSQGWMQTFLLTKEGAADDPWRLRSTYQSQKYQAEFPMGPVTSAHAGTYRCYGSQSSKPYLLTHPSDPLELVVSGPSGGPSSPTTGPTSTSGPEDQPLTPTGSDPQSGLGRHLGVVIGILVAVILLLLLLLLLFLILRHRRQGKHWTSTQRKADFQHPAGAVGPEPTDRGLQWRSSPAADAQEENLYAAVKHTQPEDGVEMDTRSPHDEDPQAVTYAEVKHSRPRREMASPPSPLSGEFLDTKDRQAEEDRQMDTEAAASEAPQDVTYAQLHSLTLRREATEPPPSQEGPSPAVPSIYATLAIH
T5 sequence (A6NI73 42-299): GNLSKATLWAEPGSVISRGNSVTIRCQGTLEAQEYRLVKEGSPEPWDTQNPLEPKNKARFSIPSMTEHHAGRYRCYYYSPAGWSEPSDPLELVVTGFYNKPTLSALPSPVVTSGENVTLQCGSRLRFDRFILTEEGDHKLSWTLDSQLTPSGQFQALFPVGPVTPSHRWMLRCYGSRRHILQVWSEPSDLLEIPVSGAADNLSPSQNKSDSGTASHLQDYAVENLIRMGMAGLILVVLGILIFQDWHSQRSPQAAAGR
T3 sequence (O75023 24-590): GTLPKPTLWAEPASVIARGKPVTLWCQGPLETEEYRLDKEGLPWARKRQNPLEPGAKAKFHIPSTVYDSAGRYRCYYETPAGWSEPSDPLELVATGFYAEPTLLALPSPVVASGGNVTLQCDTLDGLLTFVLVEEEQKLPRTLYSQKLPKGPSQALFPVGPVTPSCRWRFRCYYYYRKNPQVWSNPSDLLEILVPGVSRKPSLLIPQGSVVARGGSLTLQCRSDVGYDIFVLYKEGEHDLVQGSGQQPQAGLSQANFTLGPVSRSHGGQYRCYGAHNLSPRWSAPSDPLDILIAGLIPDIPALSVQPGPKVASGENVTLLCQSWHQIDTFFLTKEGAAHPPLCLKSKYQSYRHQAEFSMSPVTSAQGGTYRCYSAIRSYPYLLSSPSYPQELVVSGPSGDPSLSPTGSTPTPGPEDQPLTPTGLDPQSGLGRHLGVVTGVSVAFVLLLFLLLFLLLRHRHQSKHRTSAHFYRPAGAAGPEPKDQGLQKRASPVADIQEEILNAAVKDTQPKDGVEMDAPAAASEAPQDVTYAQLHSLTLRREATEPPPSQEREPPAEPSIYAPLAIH
T7 sequence (Q8N149 24-483): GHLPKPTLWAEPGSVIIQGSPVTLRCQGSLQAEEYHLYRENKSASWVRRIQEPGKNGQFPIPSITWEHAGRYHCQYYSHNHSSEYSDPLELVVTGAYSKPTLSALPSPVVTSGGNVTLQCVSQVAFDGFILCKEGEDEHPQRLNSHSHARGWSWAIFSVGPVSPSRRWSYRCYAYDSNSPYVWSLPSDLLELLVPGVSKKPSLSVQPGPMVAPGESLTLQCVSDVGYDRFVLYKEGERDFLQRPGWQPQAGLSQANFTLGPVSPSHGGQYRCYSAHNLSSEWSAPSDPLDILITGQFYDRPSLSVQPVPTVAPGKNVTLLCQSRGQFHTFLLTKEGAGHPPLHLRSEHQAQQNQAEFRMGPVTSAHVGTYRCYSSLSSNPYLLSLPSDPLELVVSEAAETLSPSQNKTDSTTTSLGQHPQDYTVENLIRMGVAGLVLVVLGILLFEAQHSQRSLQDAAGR
T1 sequence (Q8N423 22-597): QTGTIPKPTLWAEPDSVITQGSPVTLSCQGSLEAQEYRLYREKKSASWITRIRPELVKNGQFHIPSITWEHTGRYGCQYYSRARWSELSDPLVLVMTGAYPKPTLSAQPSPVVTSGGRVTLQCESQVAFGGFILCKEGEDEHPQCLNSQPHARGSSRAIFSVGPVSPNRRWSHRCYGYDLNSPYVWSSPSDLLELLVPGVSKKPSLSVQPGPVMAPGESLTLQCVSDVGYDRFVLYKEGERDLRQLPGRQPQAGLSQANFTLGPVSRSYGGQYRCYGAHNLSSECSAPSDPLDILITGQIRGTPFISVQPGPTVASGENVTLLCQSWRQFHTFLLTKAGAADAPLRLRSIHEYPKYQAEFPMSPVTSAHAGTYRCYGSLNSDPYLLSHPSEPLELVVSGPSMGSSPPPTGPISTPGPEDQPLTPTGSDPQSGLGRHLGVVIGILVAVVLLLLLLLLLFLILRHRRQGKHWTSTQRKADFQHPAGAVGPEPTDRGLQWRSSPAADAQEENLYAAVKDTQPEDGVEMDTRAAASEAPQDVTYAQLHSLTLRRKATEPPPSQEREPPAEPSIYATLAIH
T10 sequence (O75019 17-489): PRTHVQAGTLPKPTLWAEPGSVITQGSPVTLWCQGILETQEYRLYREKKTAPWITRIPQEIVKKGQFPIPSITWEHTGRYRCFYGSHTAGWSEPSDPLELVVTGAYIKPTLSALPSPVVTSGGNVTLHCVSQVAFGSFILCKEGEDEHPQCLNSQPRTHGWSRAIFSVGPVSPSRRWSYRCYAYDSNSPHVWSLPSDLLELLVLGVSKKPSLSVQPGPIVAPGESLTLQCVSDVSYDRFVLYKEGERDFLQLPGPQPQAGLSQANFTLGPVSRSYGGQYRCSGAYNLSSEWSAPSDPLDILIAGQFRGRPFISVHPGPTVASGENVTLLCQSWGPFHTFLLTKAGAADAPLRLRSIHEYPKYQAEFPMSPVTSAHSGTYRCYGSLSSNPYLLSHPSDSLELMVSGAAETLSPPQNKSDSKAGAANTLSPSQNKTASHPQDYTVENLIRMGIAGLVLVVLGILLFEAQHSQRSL
T6 sequence (P59901 24-499): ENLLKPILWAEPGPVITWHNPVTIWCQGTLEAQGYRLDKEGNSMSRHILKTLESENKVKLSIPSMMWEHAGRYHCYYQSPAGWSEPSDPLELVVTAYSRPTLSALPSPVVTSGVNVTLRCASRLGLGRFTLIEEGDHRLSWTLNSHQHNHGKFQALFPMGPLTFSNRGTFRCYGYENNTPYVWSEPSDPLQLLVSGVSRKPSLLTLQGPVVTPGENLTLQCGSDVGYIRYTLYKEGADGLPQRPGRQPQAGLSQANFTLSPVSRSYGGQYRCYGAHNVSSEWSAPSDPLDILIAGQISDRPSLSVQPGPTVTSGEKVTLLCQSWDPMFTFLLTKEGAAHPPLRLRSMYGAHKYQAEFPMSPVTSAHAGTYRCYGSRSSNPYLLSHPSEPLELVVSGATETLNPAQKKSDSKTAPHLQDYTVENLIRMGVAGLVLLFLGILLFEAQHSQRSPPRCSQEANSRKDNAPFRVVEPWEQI
T8 sequence (Q6PI73 24-481): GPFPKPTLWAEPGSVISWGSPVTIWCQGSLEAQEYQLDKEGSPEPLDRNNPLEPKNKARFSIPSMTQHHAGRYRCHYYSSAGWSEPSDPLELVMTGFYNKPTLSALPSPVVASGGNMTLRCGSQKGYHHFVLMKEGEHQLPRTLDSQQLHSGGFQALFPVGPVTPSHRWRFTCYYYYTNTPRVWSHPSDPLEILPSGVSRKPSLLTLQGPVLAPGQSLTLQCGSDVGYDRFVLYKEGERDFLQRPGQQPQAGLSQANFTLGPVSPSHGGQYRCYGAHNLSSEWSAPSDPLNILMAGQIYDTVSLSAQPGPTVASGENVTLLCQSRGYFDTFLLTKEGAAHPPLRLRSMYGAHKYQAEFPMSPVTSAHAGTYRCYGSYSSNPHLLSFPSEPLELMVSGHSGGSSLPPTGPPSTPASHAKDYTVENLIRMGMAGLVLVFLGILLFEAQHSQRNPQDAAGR

B1: B2Comp1 (antibody, human IgG4 S228P, lambda, V domains shown)
VH: EVQLQQWGAGLLKPSETLSLTCAVYGGSFSGYYWSWIRQPPGKGLEWIGEINHAGSTNYNPSLKSRVTISVDTSKNQFSLKLSSVTAADTAVYYCARLPTRWVTTRYFDLWGRGTLVTVSS
VL: ESVLTQPPSVSGAPGQRVTISCTGSSSNIGAGYDVHWYQQLPGTAPKLLIYGDSNRPSGVPDRFSVSKSGASASLAITGLQAEDEADYYCQSFDNSLSAYVFGGGTQLTVLG
notes: Benchmark antibody, IgG4 heavy chain and lambda light chain; biotin-conjugated when used as the labelled antibody in binning; also called MK-4830 (as designated in WO 2021/138079 A1); αLILRB2B2Comp1
Binder B1 has an MFI [1] of 9630 MFI.

B2: B2H1-35 (antibody, V domains shown)
VH: QVQLVESGGRVVQPGTPLRLSCAASGFSLSTYAMSWVRQAPGKGLEWVAWIYNDGSTYYAAWAKGRFTISRDTSKNTLYLQTNSLKPDDTAVYYCAREGDYIGYFNIWGQGTLVTVSS
VL: DVVMTQTPSSVSAALGGTVTIKCQASQSIGSNLAWYQLKPGQRPKLLIYAAATLASGGSSRFKGSGSGTDFTLTISSLEPADAATYYCQSYVSGSSDVAFGGGTEVVVK
notes: Humanized variant, human IgG1 / kappa
B2: no binding [2]; no binding [3]; no binding [4]. B2: no binding [5]; no binding [6]; no binding [7]. B2: no binding [8]; no binding [9]; no binding [10]. For the same binder, the “Bmax (MFI)” value [11] was 41.3 MFI, the “Bmax (MFI)” value [12] was 145 MFI and the “Bmax (MFI)” value [13] was 10300 MFI. The “Bmax (MFI)” value [14] was 38.5 MFI, the “Bmax (MFI)” value [15] was 122 MFI and the “BMAX [gMFI]” value [16] was 103 gMFI. The “Bmax (MFI)” value [17] was 33.6 MFI, the “Bmax (MFI)” value [18] was 202 MFI and the “Bmax (MFI)” value [19] was 146 MFI. The “Bmax (MFI)” value [20] was 766 MFI.

B3: B2H1-11 (antibody, V domains shown)
VH: QVQLEESGGRVVQPGRSLRLSCAASGFSLSTYAMSWVRQAPGKGLEWIGWIYNDGSTYYAAWAKGRFTISKDTSKTTVFLQMNSLKPDDTATYFCAREGDYIGYFNIWGQGTLVTVSS
VL: DIQMTQSPSSLSASVGDRVTITCQASQSIGSNLAWYQLKPGQRPKLLIYAAATLASGVPSRFKGSGSGTDFTLTISSLQSEDAATYYCQSYVSGSSDVAFGGGTEVVVK
notes: as for B2
B3: no binding [2]; no binding [3]; no binding [4]. B3: no binding [5]; no binding [6]; no binding [7]. B3: no binding [8]; no binding [9]; no binding [10]. For the same binder, the “Bmax (MFI)” value [11] was 39.8 MFI, the “Bmax (MFI)” value [12] was 147 MFI and the “Bmax (MFI)” value [13] was 11000 MFI. The “Bmax (MFI)” value [14] was 38 MFI, the “Bmax (MFI)” value [15] was 124 MFI and the “BMAX [gMFI]” value [16] was 108 gMFI. The “Bmax (MFI)” value [17] was 36.1 MFI, the “Bmax (MFI)” value [18] was 210 MFI and the “Bmax (MFI)” value [19] was 142 MFI. The “Bmax (MFI)” value [20] was 776 MFI.

B4: B2H1-52 (antibody, V domains shown)
VH: EVQLLESGGGLVQPGTSLTLSCAASGFSLSTYAMSWVRQAPGKGLEWIGWIYNDGSTYYAAWAKGRFTISKDTSKTTLYLQITSLRAEDTATYFCAREGDYIGYFNIWGQGTLVTVSS
VL: DVVMTQSPSSVSASLGDRVTITCQASQSIGSNLAWYQQKPGQAPKLLIYAAATLASGVPSRFKGSGSGTDFTLTITSLQPADFATYYCQSYVSGSSDVAFGGGTKVEIK
notes: as for B2
B4: no binding [2]; no binding [3]; no binding [4]. B4: no binding [5]; no binding [6]; no binding [7]. B4: no binding [8]; no binding [9]; no binding [10]. The “Bmax (MFI)” value [11] was 42.3 MFI, the “Bmax (MFI)” value [12] was 153 MFI and the “Bmax (MFI)” value [13] was 10300 MFI. For the same binder, the “Bmax (MFI)” value [14] was 40.5 MFI, the “Bmax (MFI)” value [15] was 123 MFI and the “BMAX [gMFI]” value [16] was 106 gMFI. The “Bmax (MFI)” value [17] was 36.1 MFI, the “Bmax (MFI)” value [18] was 219 MFI and the “Bmax (MFI)” value [19] was 159 MFI. For the same binder, the “Bmax (MFI)” value [20] was 855 MFI.
